# Legend:
# [1] = test system: cocaine-induced lethality; assay: In vivo duration of protection against cocaine-induced lethality; design: species or system NIH-Swiss mice
# Protocol: In vivo protection against cocaine lethality. Male NIH-Swiss mice (25-32 g) were obtained from Harlan Inc. (Indianapolis, Ind.) and were housed in groups of 6 mice per cage. All mice were allowed ad libitum access to food and water, and were maintained on a 12-h light-dark cycle with lights on at 06.30 AM in a room kept at a temperature of 21-22° C. Experiments were performed in accordance with the Guide for the Care and Use of Laboratory Animals as adopted and promulgated by the National Institutes of Health. The experimental protocols were approved by the University Committee on the Use and Care of Animals at the University of Michigan.
# Cocaine-induced toxicity was characterized by the occurrence of lethality, as defined by the cessation of observed movement and respiration. Mice were placed individually in Plexiglas observation chambers (16×28×20 cm high) to be habituated for 15 min before drug administration. Following intra-peritoneal (i.p.) cocaine administration, the mouse was immediately placed individually in the same chamber for observation. The presence or absence of lethality was recorded for 60 min following cocaine administration. The mouse was placed in a small restraint chamber (Outer tube diameter: 30 mm; Inner tube diameter: 24 mm) that left the tail exposed. The tail was cleansed with an alcohol wipe and a 30G1/2 precision glide needle (Fisher Scientific, Pittsburgh, Pa.) was inserted into one of the side veins for infusion. The i.v. injection volume of CocE or CocE mutant was 0.2 mL per mouse. Sterile gauze and pressure were applied to the injection site to staunch the bleeding.
# Lethality was monitored following injection at 1, 5, 10, or 30 min, or 1, 2, 3, 4, 5 hours after enzyme administration. Each treatment used 8 mice to assess the percent of lethality (i.e., protection) in mice pretreated with a single dose of an esterase at a single time point.
# These values were used to compare the degree of rightward shifts of cocaine's dose-response curve in the absence or presence of the enzyme pretreatment. In the time course study, a time point for duration of protection (i.e., 50% of lethality) was estimated by using each time course curve crossing 50% occurrence of lethality.
# Evaluation of in vivo half life. CocE is administered IV to the tail vein in a volume of 0.2 ml. Animals are challenged with 180 mg/kg cocaine delivered intraperitoneally at a given time after CocE administration.
# [2] = Protocol: Analysis of CocE action on cocaine cleavage is performed by utilizing the spectroscopic properties of cocaine, which maximally absorbs light at a 240 nm wavelength. CocE activity is measured by monitoring for a decrease in signal at A240, using various concentrations of cocaine, and determining the initial rate of the decrease. From these values the Vmax of the enzyme can be determined. By pre-incubating the enzyme at 37° C. for various times before monitoring for activity, the half life of CocE at 37° C. can be calculated.
# The initial rates (of decay) were determined by following the change in the intrinsic absorbance of cocaine at 240 nm (6700 M^1 cm^1)(Xie et al., 1999) using a SpectraMax Plus 384 UV plate reader (Molecular Devices, Sunnyvale, Calif.) using SOFTmax Pro software (Version 3.1.2). The reaction was initiated by adding 100 μL of a 2× enzyme solution (100 mM phosphate buffer, pH 7.4 and 300 mM NaCl) to 100 μL of a 2× cocaine solution (50 μg/mL enzyme, 100 mM Phosphate Buffer, pH 7.4 and 300 mM NaCl). All assays were performed with 100 μM DTT unless indicated otherwise. […] For stability measurements, wild type and mutant enzymes were diluted to 2× concentration and incubated at 37° C. for the times indicated. At the end of each time point, an aliquot was removed and kinetic behavior was observed as outlined above.
# (§1) In vitro kinetic assays. […] Initial rates were then used to determine Michaelis-Menten parameters. To assess thermal stability, enzyme preparations were preincubated at 37° C. for various lengths of time, prior to measurement of residual activities (Table 1 and FIG. 23).
# [3] = test system: cocaine-induced lethality; assay: In vivo potency of protection against cocaine-induced lethality; design: species or system NIH-Swiss mice
# [4] = Michaelis-Menten kinetics of cocaine hydrolysis (absorbance at 240 nm); type: biochemical
# Protocol: The initial rates (of decay) were determined by following the change in the intrinsic absorbance of cocaine at 240 nm (6700 M^1 cm^1)(Xie et al., 1999) using a SpectraMax Plus 384 UV plate reader (Molecular Devices, Sunnyvale, Calif.) using SOFTmax Pro software (Version 3.1.2). The reaction was initiated by adding 100 μL of a 2× enzyme solution (100 mM phosphate buffer, pH 7.4 and 300 mM NaCl) to 100 μL of a 2× cocaine solution (50 μg/mL enzyme, 100 mM Phosphate Buffer, pH 7.4 and 300 mM NaCl). All assays were performed with 100 μM DTT unless indicated otherwise. Final cocaine concentrations were as follows: 125, 62.5, 31.25, 15.63, 7.81, 3.91, 1.95, and 0.977 μM. Vmax and Km values were calculated using Prism (GraphPad Software, San Diego). For stability measurements, wild type and mutant enzymes were diluted to 2× concentration and incubated at 37° C. for the times indicated. At the end of each time point, an aliquot was removed and kinetic behavior was observed as outlined above.
# as §1
# Determination of Catalytic Efficiency. To determine the catalytic activity a spectrophometric assay was performed. Samples of L169K/G173Q CocE were added to a 96-well UV permeable plate containing increasing cocaine concentrations (0.5, 2.5, 5, 12.5, 25, 50, 100, and 150 μM) to give a final concentration of 10 ng/ml CocE in a final volume of 200 μl. The change in absorbance at 240 nm was measured over 20 minutes, with readings every 10 seconds, by a SpectraMax Plus 384 UV plate reader (Molecular Devices, Sunnyvale, Calif.) using SOFTmax Pro software (Version 3.1.2). The change in absorbance was converted to the change in concentration and furthermore the rate of decay per mole enzyme is determined (Kcat). Kcat and Km of the enzyme are determined using Prism (GraphPad software, San Diego).
# [5] = 1 mg i.v., cocaine 180 mg/kg i.p.
molecule,measurement,setting,value
"T172R/G173Q: CocE double mutant (protein, listed as Rhodococcus sp.) MVDGNYSVASNVMVPMRDGVRLAVDLYRPDADGPVPVLLVRNPYDKFDVFAWSTQSTNWLEFVRDGYAVVIQDTRGLFASEGEFVPHVDDEADAEDTLSWILEQAWCDGNVGMFGVSYLGVTQWQAAVSGVGGLKAIAPSMASADLYRAPWYGPGGALSVEALLGWSALIGRQLITSRSDARPEDAADFVQLAAILNDVAGAASVTPLAEQPLLGRLIPWVIDQVVDHPDNDESWQSISLFERLGGLATPALITAGWYDGFVGESLRTFVAVKDNADARLVVGPWSHSNLTGRNADRKFGIAATYPIQEATTMHKAFFDRHLRGETDALAGVPKVRLFVMGIDEWRDETDWPLPDTAYTPFYLGGSGAANTSTGGGTLSTSISGTESADTYLYDPADPVPSLGGTLLFHNGDNGPADQRPIHDRDDVLCYSTEVLTDPVEVTGTVSARLFVSSSAVDTDFTAKLVDVFPDGRAIALCDGIVRMRYRETLVNPTLIEAGEIYEVAIDMLATSNVFLPGHRIMVQVSSSNFPKYDRNSNTGGVIAREQLEEMCTAVNRIHRGPEHPSHIVLPIIKR","LT50, pretreatment time to 50% lethality",[1]; [5],up to 4.5 hr
same,"LT50, pretreatment time to 50% lethality","[1]; 1 mg i.v., cocaine 180 mg/kg i.p., listed as T172R-G173Q",~4.5 h
same,extension of pretreatment duration with 50% protection,"[1]; mouse, in vivo",greater than 20 fold
same,Stability @ 37 (t1/2),[2],~5.43 h
same,half-life / τinact of activity at 37° C.,[2],5.43 h
same,t1/2,[2],5.43 h
same,"plateau of catalytic activity, percent of maximal","[2]; 37° C., after greater than 8 hr / t=10 hours",approximately 35%
same,extension of in vitro τinact at 37° C.,[2]; from 10 min,approximately 27 fold
same,protection against cocaine-induced lethality,[3]; i.v. pretreatment 1 min prior to i.p. cocaine,protected
same,Kcat(mol · s^−1 · mol^−1),[4]; cocaine,2247 mol · s^−1 · mol^−1
L169K/G173Q/T172R: CocE triple mutant (protein) MVDGNYSVASNVMVPMRDGVRLAVDLYRPDADGPVPVLLVRNPYDKFDVFAWSTQSTNWLEFVRDGYAVVIQDTRGLFASEGEFVPHVDDEADAEDTLSWILEQAWCDGNVGMFGVSYLGVTQWQAAVSGVGGLKAIAPSMASADLYRAPWYGPGGALSVEALLGWSAKIGRQLITSRSDARPEDAADFVQLAAILNDVAGAASVTPLAEQPLLGRLIPWVIDQVVDHPDNDESWQSISLFERLGGLATPALITAGWYDGFVGESLRTFVAVKDNADARLVVGPWSHSNLTGRNADRKFGIAATYPIQEATTMHKAFFDRHLRGETDALAGVPKVRLFVMGIDEWRDETDWPLPDTAYTPFYLGGSGAANTSTGGGTLSTSISGTESADTYLYDPADPVPSLGGTLLFHNGDNGPADQRPIHDRDDVLCYSTEVLTDPVEVTGTVSARLFVSSSAVDTDFTAKLVDVFPDGRAIALCDGIVRMRYRETLVNPTLIEAGEIYEVAIDMLATSNVFLPGHRIMVQVSSSNFPKYDRNSNTGGVIAREQLEEMCTAVNRIHRGPEHPSHIVLPIIKR,enhanced stabilization at 37° C.,[2]; data not shown,did not display an enhanced stabilization
"L169K/G173Q: CocE double mutant, SEQ ID NO:1 with substitutions L169K and G173Q (protein, listed as Rhodococcus sp.) MVDGNYSVASNVMVPMRDGVRLAVDLYRPDADGPVPVLLVRNPYDKFDVFAWSTQSTNWLEFVRDGYAVVIQDTRGLFASEGEFVPHVDDEADAEDTLSWILEQAWCDGNVGMFGVSYLGVTQWQAAVSGVGGLKAIAPSMASADLYRAPWYGPGGALSVEALLGWSAKIGTQLITSRSDARPEDAADFVQLAAILNDVAGAASVTPLAEQPLLGRLIPWVIDQVVDHPDNDESWQSISLFERLGGLATPALITAGWYDGFVGESLRTFVAVKDNADARLVVGPWSHSNLTGRNADRKFGIAATYPIQEATTMHKAFFDRHLRGETDALAGVPKVRLFVMGIDEWRDETDWPLPDTAYTPFYLGGSGAANTSTGGGTLSTSISGTESADTYLYDPADPVPSLGGTLLFHNGDNGPADQRPIHDRDDVLCYSTEVLTDPVEVTGTVSARLFVSSSAVDTDFTAKLVDVFPDGRAIALCDGIVRMRYRETLVNPTLIEAGEIYEVAIDMLATSNVFLPGHRIMVQVSSSNFPKYDRNSNTGGVIAREQLEEMCTAVNRIHRGPEHPSHIVLPIIKR",time for which 50% of mice were protected from death,[1]; [5],up to 7.5 hrs
same,lowest dose maintaining some degree of protection,"[3]; i.v., cocaine i.p. 1 min later",0.01 mg
same,protection from increasing lethal doses of cocaine,"[3]; i.v., cocaine i.p. 1 min later",dose-dependently protected
same,turnover per molecule of enzyme,[4],approximately 6000 molecules of cocaine per minute
"G173Q: CocE mutant (protein, listed as Rhodococcus sp.) MVDGNYSVASNVMVPMRDGVRLAVDLYRPDADGPVPVLLVRNPYDKFDVFAWSTQSTNWLEFVRDGYAVVIQDTRGLFASEGEFVPHVDDEADAEDTLSWILEQAWCDGNVGMFGVSYLGVTQWQAAVSGVGGLKAIAPSMASADLYRAPWYGPGGALSVEALLGWSALIGTQLITSRSDARPEDAADFVQLAAILNDVAGAASVTPLAEQPLLGRLIPWVIDQVVDHPDNDESWQSISLFERLGGLATPALITAGWYDGFVGESLRTFVAVKDNADARLVVGPWSHSNLTGRNADRKFGIAATYPIQEATTMHKAFFDRHLRGETDALAGVPKVRLFVMGIDEWRDETDWPLPDTAYTPFYLGGSGAANTSTGGGTLSTSISGTESADTYLYDPADPVPSLGGTLLFHNGDNGPADQRPIHDRDDVLCYSTEVLTDPVEVTGTVSARLFVSSSAVDTDFTAKLVDVFPDGRAIALCDGIVRMRYRETLVNPTLIEAGEIYEVAIDMLATSNVFLPGHRIMVQVSSSNFPKYDRNSNTGGVIAREQLEEMCTAVNRIHRGPEHPSHIVLPIIKR",Stability @ 37 (t1/2),[2],~0.417 h
